The target of data set [1] is T1, HuD (GST-HuD) (Rattus norvegicus (rat), UniProt O09032 1-385). Kind of data set: EMSA; REMSA: 50 mM Tris-HCl pH 7.0, 150 mM NaCl, 5 mM MgCl2, 0.2 mM DTT, 0.25 mg/ml tRNA, 0.25 mg/ml BSA, room temperature 20 min; 20 fmol RNA and 3 pmol protein in 20 ul. The following applies: protein: recombinant, tags: GST N-terminal (pGEX-2T), label: biotin at both ends. (Mobility shift assays separate free from complexed probe on a gel.)

Data set [2] concerns the target T2, ZBP1 (His-ZBP1) (Rattus norvegicus (rat), UniProt Q8CGX0 1-577). The description is as above. Particulars: protein: recombinant, tags: 6xHis (replaces GST in pGEX), label: biotin at both ends.
Data set [3] concerns the target T2, ZBP1 (His-ZBP1). Nature of the data set: EMSA; apparent Kd; REMSA: 50 mM Tris-HCl pH 7.0, 150 mM NaCl, 5 mM MgCl2, 0.2 mM DTT, 0.25 mg/ml tRNA, 0.25 mg/ml BSA, room temperature 20 min; 20 fmol RNA and 3 pmol protein in 20 ul. Particulars: protein: recombinant, tags: 6xHis (replaces GST in pGEX), label: biotin at both ends.
The target in data set [4] is T1, HuD (GST-HuD). Kind of data set: competition EMSA; HuD displaces ZBP1 (4 pmol) from zipcode RNA; REMSA: 50 mM Tris-HCl pH 7.0, 150 mM NaCl, 5 mM MgCl2, 0.2 mM DTT, 0.25 mg/ml tRNA, 0.25 mg/ml BSA, room temperature 20 min; 20 fmol RNA and 3 pmol protein in 20 ul. Particulars: protein: recombinant; tags: GST N-terminal (pGEX-2T); label: biotin at both ends; stem-loop, 16-nt terminal loop (predicted).

Data set [5] addresses T1, HuD (GST-HuD). Kind of data set: EMSA; no difference from wild type; REMSA: 50 mM Tris-HCl pH 7.0, 150 mM NaCl, 5 mM MgCl2, 0.2 mM DTT, 0.25 mg/ml tRNA, 0.25 mg/ml BSA, room temperature 20 min; 20 fmol RNA and 3 pmol protein in 20 ul. Particulars: protein: recombinant; tags: GST N-terminal (pGEX-2T); label: biotin at both ends; disrupted structure (predicted).
Where [6] appears, read: stem-loop, 10-nt terminal loop (predicted).

Where a chain is given by its changes, count along the chain named.

T1 sequence (O09032 whole entry): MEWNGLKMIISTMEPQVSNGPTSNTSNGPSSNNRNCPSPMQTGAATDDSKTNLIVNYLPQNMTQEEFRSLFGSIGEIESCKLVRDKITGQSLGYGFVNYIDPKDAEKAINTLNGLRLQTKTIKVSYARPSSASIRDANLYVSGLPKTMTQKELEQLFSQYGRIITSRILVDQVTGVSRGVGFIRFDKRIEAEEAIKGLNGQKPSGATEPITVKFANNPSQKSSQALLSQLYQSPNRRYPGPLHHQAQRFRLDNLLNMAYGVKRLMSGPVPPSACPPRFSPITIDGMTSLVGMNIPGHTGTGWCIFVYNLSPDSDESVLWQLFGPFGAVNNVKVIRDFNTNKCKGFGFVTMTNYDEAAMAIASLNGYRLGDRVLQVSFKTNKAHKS
T2 sequence (Q8CGX0 whole entry): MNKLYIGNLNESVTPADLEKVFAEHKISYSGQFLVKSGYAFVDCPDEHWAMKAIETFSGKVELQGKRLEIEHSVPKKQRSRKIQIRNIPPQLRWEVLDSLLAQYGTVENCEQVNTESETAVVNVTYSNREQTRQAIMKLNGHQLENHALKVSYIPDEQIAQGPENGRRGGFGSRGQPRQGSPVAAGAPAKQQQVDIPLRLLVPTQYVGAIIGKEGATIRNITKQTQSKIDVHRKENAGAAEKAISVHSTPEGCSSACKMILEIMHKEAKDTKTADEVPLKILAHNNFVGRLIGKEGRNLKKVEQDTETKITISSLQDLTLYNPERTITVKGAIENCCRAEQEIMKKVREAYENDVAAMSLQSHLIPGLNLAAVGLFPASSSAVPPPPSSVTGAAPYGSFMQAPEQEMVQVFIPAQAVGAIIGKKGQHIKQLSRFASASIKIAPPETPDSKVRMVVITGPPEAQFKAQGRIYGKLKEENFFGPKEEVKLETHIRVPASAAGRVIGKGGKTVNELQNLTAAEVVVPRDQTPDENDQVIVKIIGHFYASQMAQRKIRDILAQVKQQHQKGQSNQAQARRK

Consider CGGACUGUUACUGAGCUGCGUUUUUUUCUUUGACAAAACCUAACUUGC (structured_RNA, ACACCC deleted) [delta-ACACCC zipcode], for which the binding result in data set [1] (setting [6]) and in data set [2] (setting [6]) was “binds” throughout.
For the molecule CGGACUGUUACUGAGCUGCGGACAAAACCUAACUUGC (structured_RNA, ACACCC and UUUCUUU deleted) [delta(ACACCC/U-rich) zipcode], the binding result in data set [1] (altered structure (predicted)) and in data set [2] (altered structure (predicted)) was “no binding” each time.

B1: chicken zipcode (structured_RNA)
RNA: ACCGGACUGUUACCAACACCCACACCCCUGUGAUGAAACAAAACCCAUAAAUGC
Regarding B1, in data set [1], the binding result is “no binding”. Moreover, the Kd in data set [3] came to 78.8 nM.

B2: WT zipcode (rat, 54 nt) (structured_RNA)
RNA: CGGACUGUUACUGAGCUGCGUUUUACACCCUUUCUUUGACAAAACCUAACUUGC
For orientation: IC50 means the concentration that gives 50% inhibition. On to B2, for which, in data set [3] (stem-loop, 16-nt terminal loop (predicted)), the Kd is 28.1 nM. In addition, the IC50 in data set [4] is 171 nM.

B3: AAMTCG zipcode (structure-disrupted mutant) (structured_RNA)
RNA: B2 RNA with A10C, A14G
modifications: structure disrupted; ACACCC and U-rich motifs intact
B3: the Kd in data set [3] (disrupted structure (predicted)) is 315 nM. Also, in data set [5], the binding result is reported as “binds”.

The values are drawn from article PMC4551932, “Different motif requirements for the localization zipcode element of β-actin mRNA binding by HuD and ZBP1”.
